B1: Conjugate 49: anti-MUC16 sofituzumab+ Compd 401/Compd 101 (sofituzumab HC:4x pAMF iADC, 70% TLR agonist, DAR 3.9) (antibody, human IgG1, kappa, V domains shown)
VH: EVQLVESGGGLVQPGGSLRLSCAASGYSITNDYAWNWVRQAPGKGLEWVGYISYSGYTTYNPSLKSRFTISRDTSKNTLYLQMNSLRAEDTAVYYCARWTSGLDYWGQGTLVTVSS
VL: DIQMTQSPSSLSASVGDRVTITCKASDLIHNWLAWYQQKPGKAPKLLIYGATSLETGVPSRFSGSGSGTDFTLTISSLQPEDFATYYCQQYWTTPFTFGQGTKVEIKR
modifications: pAMF at Y180 and F404 conjugated to a mixture of Compound 401 and Compound 101
B2: Conjugate 1: anti-FolR1-Compd 101 ADC (FolRα antibody 1848-B10 ADC, DAR 4) (antibody, human IgG1, kappa, V domains shown)
VH: EVQLVESGGGLVQPGGSLRLSCAASGFNTTTKSIHWVRQAPGKGLEWVGEIYPRDGITDYADSVKGRFTISADTSKNTAYLQMNSLRAEDTAVYYCARGGWHWRSGYSYYLDYWGQGTLVTVSS
VL: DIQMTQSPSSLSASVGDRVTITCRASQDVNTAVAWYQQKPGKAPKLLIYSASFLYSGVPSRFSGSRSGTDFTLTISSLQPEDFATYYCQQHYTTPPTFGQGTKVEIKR
modifications: pAMF (para-azidomethyl-L-phenylalanine) at Y180 and F404 conjugated to Compound 101 (by Table 16; Tables 8 and 10 say Y180 and K42 sites)

Columns and labels:
[1] = biological target: Muc16 on Muc16-positive OVCAR3 cells (UniProt Q8WXI7 1-14507, limits assumed); assay: cell-based or functional assay
[2] = biological target: FolR1 (folate receptor alpha) on FolR1-positive KB or Igrov1 cells (UniProt P15328 25-234, limits assumed); assay: cell-based or functional assay
FolR1 (folate receptor alpha) on FolR1-positive KB or Igrov1 cells, sequence (P15328 25-234 limits assumed): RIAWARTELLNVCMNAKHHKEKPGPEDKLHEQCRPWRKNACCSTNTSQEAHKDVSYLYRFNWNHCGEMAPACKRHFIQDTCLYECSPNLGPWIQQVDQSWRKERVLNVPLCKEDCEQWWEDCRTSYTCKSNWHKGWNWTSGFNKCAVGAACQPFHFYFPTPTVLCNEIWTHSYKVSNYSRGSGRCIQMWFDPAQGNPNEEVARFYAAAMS

Binder | Cell Killing on OVCAR3 (Muc16+), EC50 [1] | Cell Killing on FolR1+ Igrov1 Cells, EC50 [2] [pM]
B1 | 0.1 | –
B2 | – | 30

From patent US20200405813A1 (SUTRO BIOPHARMA, published 2020)
